Legend:
[1] = target: T1, HA-tagged human IgG1 Fc portion with CH3 mutations E345R, Q347R, T366V, K409V; assay: UPLC SEC of protein G-purified one-arm antibody co-expressed in HEK293F
T1 chain: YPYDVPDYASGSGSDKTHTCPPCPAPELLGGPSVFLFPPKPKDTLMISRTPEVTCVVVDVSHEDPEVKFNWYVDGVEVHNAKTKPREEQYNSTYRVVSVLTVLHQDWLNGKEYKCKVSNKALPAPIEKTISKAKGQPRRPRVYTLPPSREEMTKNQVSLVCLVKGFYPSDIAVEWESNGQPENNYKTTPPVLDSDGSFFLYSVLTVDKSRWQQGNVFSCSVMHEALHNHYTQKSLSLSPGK

[2] = target: T2, HA-tagged human IgG1 Fc portion with CH3 mutations K360D, D399M, Y407A; assay: as above
T2 chain: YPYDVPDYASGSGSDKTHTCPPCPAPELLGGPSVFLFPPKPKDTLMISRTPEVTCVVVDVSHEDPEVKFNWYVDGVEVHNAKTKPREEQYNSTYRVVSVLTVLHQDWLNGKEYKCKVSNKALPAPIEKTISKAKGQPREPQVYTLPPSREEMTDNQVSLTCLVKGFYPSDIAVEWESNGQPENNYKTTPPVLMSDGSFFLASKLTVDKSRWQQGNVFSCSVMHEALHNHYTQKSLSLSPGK

[3] = target: matuzumab HC_7.8_B + matuzumab LC (IgG1); assay: LCMS, IgG1 BsAb co-expression; HCA/HCB heterodimer carrying two LC1
[4] = target: BHA10 HC_7.8_B + BHA10 LC (IgG1); assay: as above
[5] = LCMS, IgG1 BsAb co-expression; HCA homodimer species
[6] = target: matuzumab HC_7.8_B + matuzumab LC (IgG1); assay: LCMS, IgG1 BsAb co-expression; HCA/HCB heterodimer carrying two LC2
[7] = target: BHA10 HC_7.8_B + BHA10 LC (IgG1); assay: as above
[8] = target: matuzumab HC_7.8_B + matuzumab LC (IgG1); assay: LCMS, IgG1 BsAb co-expression in HEK293F
[9] = target: BHA10 HC_7.8_B + BHA10 LC (IgG1); assay: LCMS, IgG1 BsAb co-expression in HEK293F
[10] = target: BHA10 HC_7.8.60_B + BHA10 LC (IgG1); assay: LCMS, IgG1 BsAb co-expression; HCA/HCB heterodimer carrying two LC1
[11] = target: matuzumab HC_7.8.60_B + matuzumab LC (IgG1); assay: as above
[12] = target: BHA10 HC_7.8.60_B + BHA10 LC (IgG1); assay: LCMS, IgG1 BsAb co-expression; HCA/HCB heterodimer carrying two LC2
[13] = target: matuzumab HC_7.8.60_B + matuzumab LC (IgG1); assay: as above
[14] = target: BHA10 HC_7.8.60_B + BHA10 LC (IgG1); assay: LCMS, IgG1 BsAb co-expression in HEK293F
[15] = target: matuzumab HC_7.8.60_B + matuzumab LC (IgG1); assay: LCMS, IgG1 BsAb co-expression in HEK293F
[16] = pertuzumab × matuzumab bispecific

B1: anti-c-Met 5D5 VH-human IgG1 HC with CH3 mutations K360D, D399M, Y407A, with 5D5 light chain (protein)
chain 1: EVQLVESGGGLVQPGGSLRLSCAASGYTFTSYWLHWVRQAPGKGLEWVGMIDPSNSDTRFNPNFKDRFTISADTSKNTAYLQMNSLRAEDTAVYYCATYRSYVTPLDYWGQGTLVTVSSASTKGPSVFPLAPSSKSTSGGTAALGCLVKDYFPEPVTVSWNSGALTSGVHTFPAVLQSSGLYSLSSVVTVPSSSLGTQTYICNVNHKPSNTKVDKRVEPKSCDKTHTCPPCPAPELLGGPSVFLFPPKPKDTLMISRTPEVTCVVVDVSHEDPEVKFNWYVDGVEVHNAKTKPREEQYNSTYRVVSVLTVLHQDWLNGKEYKCKVSNKALPAPIEKTISKAKGQPREPQVYTLPPSREEMTDNQVSLTCLVKGFYPSDIAVEWESNGQPENNYKTTPPVLMSDGSFFLASKLTVDKSRWQQGNVFSCSVMHEALHNHYTQKSLSLSPGK
chain 2: DIQMTQSPSSLSASVGDRVTITCKSSQSLLYTSSQKNYLAWYQQKPGKAPKLLIYWASTRESGVPSRFSGSGSGTDFTLTISSLQPEDFATYYCQQYYAYPWTFGQGTKVEIKRTVAAPSVFIFPPSDEQLKSGTASVVCLLNNFYPREAKVQWKVDNALQSGNSQESVTEQDSKDSTYSLSSTLTLSKADYEKHKVYACEVTHQGLSSPVTKSFNRGEC
% heterodimer (UPLC) [1]: 93%

B2: anti-c-Met 5D5 VH-human IgG1 HC with CH3 mutations E345R, Q347R, T366V, K409V, with 5D5 light chain (protein)
chain 1: EVQLVESGGGLVQPGGSLRLSCAASGYTFTSYWLHWVRQAPGKGLEWVGMIDPSNSDTRFNPNFKDRFTISADTSKNTAYLQMNSLRAEDTAVYYCATYRSYVTPLDYWGQGTLVTVSSASTKGPSVFPLAPSSKSTSGGTAALGCLVKDYFPEPVTVSWNSGALTSGVHTFPAVLQSSGLYSLSSVVTVPSSSLGTQTYICNVNHKPSNTKVDKRVEPKSCDKTHTCPPCPAPELLGGPSVFLFPPKPKDTLMISRTPEVTCVVVDVSHEDPEVKFNWYVDGVEVHNAKTKPREEQYNSTYRVVSVLTVLHQDWLNGKEYKCKVSNKALPAPIEKTISKAKGQPRRPRVYTLPPSREEMTKNQVSLVCLVKGFYPSDIAVEWESNGQPENNYKTTPPVLDSDGSFFLYSVLTVDKSRWQQGNVFSCSVMHEALHNHYTQKSLSLSPGK
chain 2: DIQMTQSPSSLSASVGDRVTITCKSSQSLLYTSSQKNYLAWYQQKPGKAPKLLIYWASTRESGVPSRFSGSGSGTDFTLTISSLQPEDFATYYCQQYYAYPWTFGQGTKVEIKRTVAAPSVFIFPPSDEQLKSGTASVVCLLNNFYPREAKVQWKVDNALQSGNSQESVTEQDSKDSTYSLSSTLTLSKADYEKHKVYACEVTHQGLSSPVTKSFNRGEC
% heterodimer (UPLC) [2]: 93.3%

B3: pertuzumab HC_7.8_A + pertuzumab LC (IgG1) (protein)
chain 1: EVQLVESGGGLVQPGGSLRLSCAASGFTFTDYTMDWVRKAPGKGLEWVADVNPNSGGSIYNQEFKGRFTLSVDRSKNTLYLQMNSLRAEDTAVYYCARNLGPSFYFDYWGQGTLVTVSSASTKGPSVFPLAPSSKSTSGGTAALGCLVKDYFPEPVTVSWNSGALTSGVATGPAVLQSSGLYSLSSVVTVPSSSLGTQTYICNVNHKPSNTKVDKKVEPKSCDKTHTCPPCPAPELLGGPSVFLFPPKPKDTLMISRTPEVTCVVVDVSHEDPEVKFNWYVDGVEVHNAKTKPREEQYQSTYRVVSVLTVLHQDWLNGKEYKCKVSNKALPAPIEKTISKAKGQPREPQVYTLPPSREEMTKNQVSLTCLVKGFYPSDIAVEWESNGQPENNYKTTPPVLMSDGSFFLASKLTVDKSRWQQGNVFSCSVMHEALHNHYTQKSLSLSPGK
chain 2: RIQMTQSPSSLSASVGDRVTITCKASQDVSIGVAWYQDKPGKAPKLLIYSASYRYTGVPSRFSGSGSGTDFTLTISSLQPEDFATYYCQQYYIYPYTFGQGTKVEIKGQPKAAPSVTLFPPSSEELQANKATLVCYISDFYPGAVTVAWKADSSPVKAGVETTTPSKQSNNKYAAWSYLSLTPEQWKSHRSYSCQVTHEGSTVEKTVAPTEC
% AB (2x LC1) (incorrect assembly) [3]: 0% | % AB (2x LC1) (incorrect assembly) [4]: 15.6% | % AA Homodimer (incorrect assembly) ([5]; pertuzumab × BHA10 bispecific): 0% | % AA Homodimer (incorrect assembly) [5, 16]: 0.5% | % AB (2x LC2) (incorrect assembly) [6]: 1.2% | % AB (2x LC2) (incorrect assembly) [7]: 0% | % AB (LC1/LC2) (correct IgG BsAb assembly) [8]: 95.4% | % AB (LC1/LC2) (correct IgG BsAb assembly) [9]: 69.3%

B4: pertuzumab HC_7.8.60_A + pertuzumab LC (IgG1) (protein)
chain 1: EVQLVESGGGLVQPGGSLRLSCAASGFTFTDYTMDWVRKAPGKGLEWVADVNPNSGGSIYNQEFKGRFTLSVDRSKNTLYLQMNSLRAEDTAVYYCARNLGPSFYFDYWGQGTLVTVSSASTKGPSVFPLAPSSKSTSGGTAALGCLVKDYFPEPVTVSWNSGALTSGVATGPAVLQSSGLYSLSSVVTVPSSSLGTQTYICNVNHKPSNTKVDKKVEPKSCDKTHTCPPCPAPELLGGPSVFLFPPKPKDTLMISRTPEVTCVVVDVSHEDPEVKFNWYVDGVEVHNAKTKPREEQYQSTYRVVSVLTVLHQDWLNGKEYKCKVSNKALPAPIEKTISKAKGQPREPQVYTLPPSREEMTDNQVSLTCLVKGFYPSDIAVEWESNGQPENNYKTTPPVLMSDGSFFLASKLTVDKSRWQQGNVFSCSVMHEALHNHYTQKSLSLSPGK
chain 2: RIQMTQSPSSLSASVGDRVTITCKASQDVSIGVAWYQDKPGKAPKLLIYSASYRYTGVPSRFSGSGSGTDFTLTISSLQPEDFATYYCQQYYIYPYTFGQGTKVEIKGQPKAAPSVTLFPPSSEELQANKATLVCYISDFYPGAVTVAWKADSSPVKAGVETTTPSKQSNNKYAAWSYLSLTPEQWKSHRSYSCQVTHEGSTVEKTVAPTEC
% AB (2x LC1) (incorrect assembly) [10]: 0% | % AB (2x LC1) (incorrect assembly) [11]: 0% | % AA Homodimer (incorrect assembly) ([5]; pertuzumab × BHA10 bispecific): 0.7% | % AA Homodimer (incorrect assembly) [5, 16]: 0.6% | % AB (2x LC2) (incorrect assembly) [12]: 2.5% | % AB (2x LC2) (incorrect assembly) [13]: 0% | % AB (LC1/LC2) (correct IgG BsAb assembly) [14]: 95.2% | % AB (LC1/LC2) (correct IgG BsAb assembly) [15]: 98.1%

From US20180009908
